# Measured values from patent US20180155451A1 (published 2018).
# T1: FcγRIIa R (human, UniProt P12318 34-217)
# T1 construct: extracellular domain; Soluble extracellular domain with C-terminal His tag, expressed in FreeStyle293 cells; also called FcgRIIa R; FcγRIIa type R; not shown: His tag attached to the C terminus
# T1 sequence (looked up): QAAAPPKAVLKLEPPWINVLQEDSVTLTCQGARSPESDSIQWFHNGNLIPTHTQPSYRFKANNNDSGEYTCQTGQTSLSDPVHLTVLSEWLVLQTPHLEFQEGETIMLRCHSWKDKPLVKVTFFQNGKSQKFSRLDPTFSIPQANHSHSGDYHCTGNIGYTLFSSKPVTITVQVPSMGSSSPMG
# Biological target: T1, FcγRIIa R
# Assay: SPR (Biacore), antibody captured via antigen peptide, FcγRIIa R as analyte; homodimerized antibody
# Description: Analysis of interaction between objective antibody and the FcγR was carried out using Biacore T100 (GE Healthcare). HBS-EP+ (GE Healthcare) was used as the running buffer, and the measurement temperature was set to 25° C. Chips produced by immobilizing the antigen peptide by the amine coupling method to a Series S Sencor Chip CM5 (GE Healthcare), or alternatively, chips produced by allowing preliminarily biotinylated antigen peptides to interact with and immobilize onto a Series S Sensor Chip SA (certified) (GE Healthcare) were used. Antibodies of interest were captured onto an antigen peptide-immobilized chip, and allowed to interact to each FcγR diluted with running buffer. To regenerate and repeatedly use the chip, the antibodies captured on the chip were washed off by reacting 10 mM glycine-HCl, pH 1.5.
row,Binder,Ho/Con_2aR
1,"GpH7-B3 variant K326_14T/GpL16-k0 (antibody, human IgG1, kappa, homodimerized; mutation in both H chains; also called Ho Ab) heavy: not shown light: DIVMTQSPLSLPVTPGEPASISCQASESLVHSNRNTYLHWYLQKPGQSPQLLIYKVSNRFSGVPDRFSGSGSGTDFTLKISRVEAEDVGVYYCSQNTHVPPTFGQGTKVEIERTVAAPSVFIFPPSDEQLKSGTASVVCLLNNFYPREAKVQWKVDNALQSGNSQESVTEQDSKDSTYSLSSTLTLSKADYEKHKVYACEVTHQGLSSPVTKSFNRGEC",141 % of control (GpH7-B3/GpL16-k0 = 100)
2,"GpH7-B3 variant S239_01G/GpL16-k0 (antibody, human IgG1, kappa, homodimerized; mutation in both H chains; also called Ho Ab) heavy: not shown light: DIVMTQSPLSLPVTPGEPASISCQASESLVHSNRNTYLHWYLQKPGQSPQLLIYKVSNRFSGVPDRFSGSGSGTDFTLKISRVEAEDVGVYYCSQNTHVPPTFGQGTKVEIERTVAAPSVFIFPPSDEQLKSGTASVVCLLNNFYPREAKVQWKVDNALQSGNSQESVTEQDSKDSTYSLSSTLTLSKADYEKHKVYACEVTHQGLSSPVTKSFNRGEC",132 % of control (GpH7-B3/GpL16-k0 = 100)
3,"GpH7-B3 variant K334_14T/GpL16-k0 (antibody, human IgG1, kappa, homodimerized; mutation in both H chains; also called Ho Ab) heavy: not shown light: DIVMTQSPLSLPVTPGEPASISCQASESLVHSNRNTYLHWYLQKPGQSPQLLIYKVSNRFSGVPDRFSGSGSGTDFTLKISRVEAEDVGVYYCSQNTHVPPTFGQGTKVEIERTVAAPSVFIFPPSDEQLKSGTASVVCLLNNFYPREAKVQWKVDNALQSGNSQESVTEQDSKDSTYSLSSTLTLSKADYEKHKVYACEVTHQGLSSPVTKSFNRGEC",117 % of control (GpH7-B3/GpL16-k0 = 100)
4,"GpH7-B3 variant L328_06M/GpL16-k0 (antibody, human IgG1, kappa, homodimerized; mutation in both H chains; also called Ho Ab) heavy: not shown light: DIVMTQSPLSLPVTPGEPASISCQASESLVHSNRNTYLHWYLQKPGQSPQLLIYKVSNRFSGVPDRFSGSGSGTDFTLKISRVEAEDVGVYYCSQNTHVPPTFGQGTKVEIERTVAAPSVFIFPPSDEQLKSGTASVVCLLNNFYPREAKVQWKVDNALQSGNSQESVTEQDSKDSTYSLSSTLTLSKADYEKHKVYACEVTHQGLSSPVTKSFNRGEC",124 % of control (GpH7-B3/GpL16-k0 = 100)
5,"GpH7-B3 variant S267_01G/GpL16-k0 (antibody, human IgG1, kappa, homodimerized; mutation in both H chains; also called Ho Ab) heavy: not shown light: DIVMTQSPLSLPVTPGEPASISCQASESLVHSNRNTYLHWYLQKPGQSPQLLIYKVSNRFSGVPDRFSGSGSGTDFTLKISRVEAEDVGVYYCSQNTHVPPTFGQGTKVEIERTVAAPSVFIFPPSDEQLKSGTASVVCLLNNFYPREAKVQWKVDNALQSGNSQESVTEQDSKDSTYSLSSTLTLSKADYEKHKVYACEVTHQGLSSPVTKSFNRGEC",116 % of control (GpH7-B3/GpL16-k0 = 100)
6,"GpH7-B3 variant S267_07I/GpL16-k0 (antibody, human IgG1, kappa, homodimerized; mutation in both H chains; also called Ho Ab) heavy: not shown light: DIVMTQSPLSLPVTPGEPASISCQASESLVHSNRNTYLHWYLQKPGQSPQLLIYKVSNRFSGVPDRFSGSGSGTDFTLKISRVEAEDVGVYYCSQNTHVPPTFGQGTKVEIERTVAAPSVFIFPPSDEQLKSGTASVVCLLNNFYPREAKVQWKVDNALQSGNSQESVTEQDSKDSTYSLSSTLTLSKADYEKHKVYACEVTHQGLSSPVTKSFNRGEC",113 % of control (GpH7-B3/GpL16-k0 = 100)
7,"GpH7-B3 variant S267_02A/GpL16-k0 (antibody, human IgG1, kappa, homodimerized; mutation in both H chains; also called Ho Ab) heavy: not shown light: DIVMTQSPLSLPVTPGEPASISCQASESLVHSNRNTYLHWYLQKPGQSPQLLIYKVSNRFSGVPDRFSGSGSGTDFTLKISRVEAEDVGVYYCSQNTHVPPTFGQGTKVEIERTVAAPSVFIFPPSDEQLKSGTASVVCLLNNFYPREAKVQWKVDNALQSGNSQESVTEQDSKDSTYSLSSTLTLSKADYEKHKVYACEVTHQGLSSPVTKSFNRGEC",160 % of control (GpH7-B3/GpL16-k0 = 100)
8,"GpH7-B3 variant K334_03V/GpL16-k0 (antibody, human IgG1, kappa, homodimerized; mutation in both H chains; also called Ho Ab) heavy: not shown light: DIVMTQSPLSLPVTPGEPASISCQASESLVHSNRNTYLHWYLQKPGQSPQLLIYKVSNRFSGVPDRFSGSGSGTDFTLKISRVEAEDVGVYYCSQNTHVPPTFGQGTKVEIERTVAAPSVFIFPPSDEQLKSGTASVVCLLNNFYPREAKVQWKVDNALQSGNSQESVTEQDSKDSTYSLSSTLTLSKADYEKHKVYACEVTHQGLSSPVTKSFNRGEC",123 % of control (GpH7-B3/GpL16-k0 = 100)
9,"GpH7-B3 variant L328_03V/GpL16-k0 (antibody, human IgG1, kappa, homodimerized; mutation in both H chains; also called Ho Ab) heavy: not shown light: DIVMTQSPLSLPVTPGEPASISCQASESLVHSNRNTYLHWYLQKPGQSPQLLIYKVSNRFSGVPDRFSGSGSGTDFTLKISRVEAEDVGVYYCSQNTHVPPTFGQGTKVEIERTVAAPSVFIFPPSDEQLKSGTASVVCLLNNFYPREAKVQWKVDNALQSGNSQESVTEQDSKDSTYSLSSTLTLSKADYEKHKVYACEVTHQGLSSPVTKSFNRGEC",116 % of control (GpH7-B3/GpL16-k0 = 100)
10,"GpH7-B3 variant K326_16H/GpL16-k0 (antibody, human IgG1, kappa, homodimerized; mutation in both H chains; also called Ho Ab) heavy: not shown light: DIVMTQSPLSLPVTPGEPASISCQASESLVHSNRNTYLHWYLQKPGQSPQLLIYKVSNRFSGVPDRFSGSGSGTDFTLKISRVEAEDVGVYYCSQNTHVPPTFGQGTKVEIERTVAAPSVFIFPPSDEQLKSGTASVVCLLNNFYPREAKVQWKVDNALQSGNSQESVTEQDSKDSTYSLSSTLTLSKADYEKHKVYACEVTHQGLSSPVTKSFNRGEC",123 % of control (GpH7-B3/GpL16-k0 = 100)
11,"GpH7-B3 variant P238_08L/GpL16-k0 (antibody, human IgG1, kappa, homodimerized; mutation in both H chains; also called Ho Ab) heavy: not shown light: DIVMTQSPLSLPVTPGEPASISCQASESLVHSNRNTYLHWYLQKPGQSPQLLIYKVSNRFSGVPDRFSGSGSGTDFTLKISRVEAEDVGVYYCSQNTHVPPTFGQGTKVEIERTVAAPSVFIFPPSDEQLKSGTASVVCLLNNFYPREAKVQWKVDNALQSGNSQESVTEQDSKDSTYSLSSTLTLSKADYEKHKVYACEVTHQGLSSPVTKSFNRGEC",148 % of control (GpH7-B3/GpL16-k0 = 100)
12,"GpH7-B3 variant L328_15Y/GpL16-k0 (antibody, human IgG1, kappa, homodimerized; mutation in both H chains; also called Ho Ab) heavy: not shown light: DIVMTQSPLSLPVTPGEPASISCQASESLVHSNRNTYLHWYLQKPGQSPQLLIYKVSNRFSGVPDRFSGSGSGTDFTLKISRVEAEDVGVYYCSQNTHVPPTFGQGTKVEIERTVAAPSVFIFPPSDEQLKSGTASVVCLLNNFYPREAKVQWKVDNALQSGNSQESVTEQDSKDSTYSLSSTLTLSKADYEKHKVYACEVTHQGLSSPVTKSFNRGEC",157 % of control (GpH7-B3/GpL16-k0 = 100)
13,"GpH7-B3 variant L328_07I/GpL16-k0 (antibody, human IgG1, kappa, homodimerized; mutation in both H chains; also called Ho Ab) heavy: not shown light: DIVMTQSPLSLPVTPGEPASISCQASESLVHSNRNTYLHWYLQKPGQSPQLLIYKVSNRFSGVPDRFSGSGSGTDFTLKISRVEAEDVGVYYCSQNTHVPPTFGQGTKVEIERTVAAPSVFIFPPSDEQLKSGTASVVCLLNNFYPREAKVQWKVDNALQSGNSQESVTEQDSKDSTYSLSSTLTLSKADYEKHKVYACEVTHQGLSSPVTKSFNRGEC",140 % of control (GpH7-B3/GpL16-k0 = 100)
14,"GpH7-B3 variant S239_09D/GpL16-k0 (antibody, human IgG1, kappa, homodimerized; mutation in both H chains; also called Ho Ab; GpH7-B3-06-09D/GpL16-k0) heavy: not shown light: DIVMTQSPLSLPVTPGEPASISCQASESLVHSNRNTYLHWYLQKPGQSPQLLIYKVSNRFSGVPDRFSGSGSGTDFTLKISRVEAEDVGVYYCSQNTHVPPTFGQGTKVEIERTVAAPSVFIFPPSDEQLKSGTASVVCLLNNFYPREAKVQWKVDNALQSGNSQESVTEQDSKDSTYSLSSTLTLSKADYEKHKVYACEVTHQGLSSPVTKSFNRGEC",142 % of control (GpH7-B3/GpL16-k0 = 100)
15,"GpH7-B3 variant K334_07I/GpL16-k0 (antibody, human IgG1, kappa, homodimerized; mutation in both H chains; also called Ho Ab) heavy: not shown light: DIVMTQSPLSLPVTPGEPASISCQASESLVHSNRNTYLHWYLQKPGQSPQLLIYKVSNRFSGVPDRFSGSGSGTDFTLKISRVEAEDVGVYYCSQNTHVPPTFGQGTKVEIERTVAAPSVFIFPPSDEQLKSGTASVVCLLNNFYPREAKVQWKVDNALQSGNSQESVTEQDSKDSTYSLSSTLTLSKADYEKHKVYACEVTHQGLSSPVTKSFNRGEC",121 % of control (GpH7-B3/GpL16-k0 = 100)
16,"GpH7-B3 variant K334_15Y/GpL16-k0 (antibody, human IgG1, kappa, homodimerized; mutation in both H chains; also called Ho Ab) heavy: not shown light: DIVMTQSPLSLPVTPGEPASISCQASESLVHSNRNTYLHWYLQKPGQSPQLLIYKVSNRFSGVPDRFSGSGSGTDFTLKISRVEAEDVGVYYCSQNTHVPPTFGQGTKVEIERTVAAPSVFIFPPSDEQLKSGTASVVCLLNNFYPREAKVQWKVDNALQSGNSQESVTEQDSKDSTYSLSSTLTLSKADYEKHKVYACEVTHQGLSSPVTKSFNRGEC",112 % of control (GpH7-B3/GpL16-k0 = 100)
17,"GpH7-B3 variant K334_18N/GpL16-k0 (antibody, human IgG1, kappa, homodimerized; mutation in both H chains; also called Ho Ab) heavy: not shown light: DIVMTQSPLSLPVTPGEPASISCQASESLVHSNRNTYLHWYLQKPGQSPQLLIYKVSNRFSGVPDRFSGSGSGTDFTLKISRVEAEDVGVYYCSQNTHVPPTFGQGTKVEIERTVAAPSVFIFPPSDEQLKSGTASVVCLLNNFYPREAKVQWKVDNALQSGNSQESVTEQDSKDSTYSLSSTLTLSKADYEKHKVYACEVTHQGLSSPVTKSFNRGEC",113 % of control (GpH7-B3/GpL16-k0 = 100)
18,"GpH7-B3 variant K334_16H/GpL16-k0 (antibody, human IgG1, kappa, homodimerized; mutation in both H chains; also called Ho Ab) heavy: not shown light: DIVMTQSPLSLPVTPGEPASISCQASESLVHSNRNTYLHWYLQKPGQSPQLLIYKVSNRFSGVPDRFSGSGSGTDFTLKISRVEAEDVGVYYCSQNTHVPPTFGQGTKVEIERTVAAPSVFIFPPSDEQLKSGTASVVCLLNNFYPREAKVQWKVDNALQSGNSQESVTEQDSKDSTYSLSSTLTLSKADYEKHKVYACEVTHQGLSSPVTKSFNRGEC",111 % of control (GpH7-B3/GpL16-k0 = 100)
19,"GpH7-B3 variant L328_04F/GpL16-k0 (antibody, human IgG1, kappa, homodimerized; mutation in both H chains; also called Ho Ab) heavy: not shown light: DIVMTQSPLSLPVTPGEPASISCQASESLVHSNRNTYLHWYLQKPGQSPQLLIYKVSNRFSGVPDRFSGSGSGTDFTLKISRVEAEDVGVYYCSQNTHVPPTFGQGTKVEIERTVAAPSVFIFPPSDEQLKSGTASVVCLLNNFYPREAKVQWKVDNALQSGNSQESVTEQDSKDSTYSLSSTLTLSKADYEKHKVYACEVTHQGLSSPVTKSFNRGEC",145 % of control (GpH7-B3/GpL16-k0 = 100)
20,"GpH7-B3 variant K326_19Q/GpL16-k0 (antibody, human IgG1, kappa, homodimerized; mutation in both H chains; also called Ho Ab) heavy: not shown light: DIVMTQSPLSLPVTPGEPASISCQASESLVHSNRNTYLHWYLQKPGQSPQLLIYKVSNRFSGVPDRFSGSGSGTDFTLKISRVEAEDVGVYYCSQNTHVPPTFGQGTKVEIERTVAAPSVFIFPPSDEQLKSGTASVVCLLNNFYPREAKVQWKVDNALQSGNSQESVTEQDSKDSTYSLSSTLTLSKADYEKHKVYACEVTHQGLSSPVTKSFNRGEC",137 % of control (GpH7-B3/GpL16-k0 = 100)
